Changes are numbered by the printed parent chain.
Key:
[1] = target: T1, recombinant alipidated human ApoE4 (human, UniProt P02649 19-317); experiment: direct ELISA on coated recombinant alipidated ApoE (0.5 ug/ml)
T1 construct: mature; full length recombinant protein made in E. coli or bought; biotinylated for SPR; position 112 is counted on the mature protein, not on the precursor entry; also called recApoE; non-lipidated ApoE4
Procedure: (§1) ELISA dose response curves were generated for several anti-ApoE antibodies. Briefly, plates were coated overnight with full length recombinant alipidated ApoE2, ApoE3, or ApoE4 (0.5 μg/ml). The following days, plates were washed, blocked and then incubated with an anti-ApoE antibody. A goat, anti-mouse IgG-HRP antibody was used for secondary detection. Recombinant alipidated ApoE was either expressed solubly in E. coli and then purified, or purchased from a commercial supplier.
Target sequence in this assay (P02649 19-317 C130R): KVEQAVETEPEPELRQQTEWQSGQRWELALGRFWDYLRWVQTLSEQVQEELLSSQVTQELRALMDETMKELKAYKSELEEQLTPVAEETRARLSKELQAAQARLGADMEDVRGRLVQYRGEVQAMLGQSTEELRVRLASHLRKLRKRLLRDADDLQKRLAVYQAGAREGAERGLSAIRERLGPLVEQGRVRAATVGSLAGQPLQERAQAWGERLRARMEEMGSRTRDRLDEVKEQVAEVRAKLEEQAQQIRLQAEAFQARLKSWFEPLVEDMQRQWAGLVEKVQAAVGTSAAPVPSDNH

[2] = target: T2, recombinant alipidated human ApoE3 (human, UniProt P02649 19-317); experiment: as above
T2 construct: mature; full length recombinant protein made in E. coli or bought
T2 sequence (P02649 19-317): as the sequence (P02649 19-317 C130R) above, with R112C counted along it
Procedure: as §1

[3] = target: T1, recombinant alipidated human ApoE4; experiment: SPR (Biacore T200), biotinylated ApoE4 captured on anti-biotin mAb chip, antibody injected, 1:1 fit
Procedure: The affinity of several anti-ApoE antibodies for ApoE4 was determined by surface plasmon resonance using a BIAcore T200. Anti-biotin monoclonal mouse antibody was immobilized on a Biacore Series S CM5 sensor chip. Biotinylated recombinant alipidated ApoE4 was then captured on to the chip. Serial dilutions of each antibody were injected at a flow rate of 30 μl/min. Each sample was analyzed, for example, with 3-minute association and 10-minute dissociation. After each injection the chip was regenerated using 3 M MgCl₂ or another appropriate buffer. Binding response was corrected by subtracting the response units (RUs) from a flow cell capturing an irrelevant IgG at similar density. A 1:1 Languir model of simultaneous fitting of Kₒₙ and Koff was used for kinetics analysis. Recombinant alipidated ApoE4 was either expressed in soluble form in E. coli and then purified, or purchased from a commercial supplier.

[4] = target: T3, ApoE4 amino acids 1-164, expressed on yeast (human, UniProt P02649 19-182); experiment: yeast display of myc-tagged ApoE4 fragment, antibody staining
T3 construct: with myc tag, on yeast cells; range counts on the mature protein; also called up to helix 4; not shown: myc tag and yeast surface-display partner
T3 chain: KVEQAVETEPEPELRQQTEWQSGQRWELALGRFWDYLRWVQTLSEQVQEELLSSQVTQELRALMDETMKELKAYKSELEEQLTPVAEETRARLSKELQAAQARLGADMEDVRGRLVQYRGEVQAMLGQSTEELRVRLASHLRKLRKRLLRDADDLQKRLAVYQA
Procedure: (§2) Epitope binding of various anti-ApoE antibodies was evaluated multiple ways. Different sequences of human ApoE were expressed on the surface of yeast by yeast display using different plasmids. Different anti-ApoE antibodies were then assessed to determine binding to the different ApoE sequences by immunofluorescence of the yeast cell surface (Table 4). Because none of the anti-ApoE antibodies tested here recognize murine ApoE, the epitope was further narrowed down by comparison of the murine and human ApoE sequences as shown in Tables 4 and 5. DNA constructs containing different regions of ApoE4 with myc tag were transformed into yeast cells. Yeast cells were incubated with HJ15x to detect binding or anti-myc antibody to detect expression.

[5] = target: T4, ApoE4 amino acids 54-164, expressed on yeast (human, UniProt P02649 72-182); experiment: as above
T4 construct: with myc tag, on yeast cells; expression in yeast printed as Low; range counts on the mature protein; also called helix2 + 3 + 4
T4 chain: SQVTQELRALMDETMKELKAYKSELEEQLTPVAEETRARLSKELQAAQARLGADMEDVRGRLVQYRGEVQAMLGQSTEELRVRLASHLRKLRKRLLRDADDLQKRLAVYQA
Procedure: as §2

[6] = target: T5, ApoE4 amino acids 24-164, expressed on yeast (human, UniProt P02649 42-182); experiment: as above
T5 construct: with myc tag, on yeast cells; range counts on the mature protein; also called helix1 + 2 + 3 + 4
T5 chain: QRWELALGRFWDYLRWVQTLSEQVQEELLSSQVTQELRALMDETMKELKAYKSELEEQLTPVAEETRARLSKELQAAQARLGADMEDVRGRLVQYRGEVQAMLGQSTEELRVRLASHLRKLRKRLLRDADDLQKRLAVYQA
Procedure: as §2

[7] = target: T6, ApoE4 amino acids 1-210, expressed on yeast (human, UniProt P02649 19-228); experiment: as above
T6 construct: with myc tag, on yeast cells; range counts on the mature protein; also called N terminal domain; not shown: myc tag and yeast surface-display partner
T6 chain: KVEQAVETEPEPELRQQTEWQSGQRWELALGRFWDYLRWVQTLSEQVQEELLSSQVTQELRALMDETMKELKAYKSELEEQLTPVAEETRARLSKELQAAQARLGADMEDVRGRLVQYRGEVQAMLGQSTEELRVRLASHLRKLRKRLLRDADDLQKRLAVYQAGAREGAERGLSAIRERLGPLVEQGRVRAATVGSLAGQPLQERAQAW
Procedure: as §2

[8] = target: T7, recombinant alipidated human ApoE2 (human, UniProt P02649 19-317); experiment: direct ELISA on coated recombinant alipidated ApoE (0.5 ug/ml)
T7 construct: mature; full length recombinant protein made in E. coli or bought
Procedure: as §1

B1: HJ159 (antibody, V domains shown)
VH: QVQLQQSGPDLVKPGASVKISCKASGYTFIDYYINWAKQRPGQGLEWIGWIFPGSGSTYYNEKFKGKATLTVDKSSSTAYMFLSSLTSEDSAVFFCARYYGSSPFAYWGQGTLVTVSA
VL: DVLMTQTPLSLPVSLGDQASISCRSSQNIVYSNGNTYLEWYLQKPGQSPKLLIYKVSNRFSGVPDRFSGSGSGTYFTLKISRVEAEDLGIYYCFQGSHVPYTFGGGTKLEIKR
notes: murine monoclonal antibody from hybridoma
EC50 [1]: 0.32 nM
EC50 [2]: 1.9 nM
Kd [3]: 391 nM
koff [3]: 0.0074 s⁻¹
kon [3]: 18900 M⁻¹ s⁻¹
binding result [4]: binds
binding result [5]: binds
binding result [6]: binds
binding result [7]: binds

B2: HJ1513 (antibody, V domains shown)
VH: QIQLQQSGPELVKPGASVKISCKASGYTFTDYYINWVRQRPGQGLEWIGWIYPESFNTYYNEKFKGKATLTVDTSSNTAYMQLSSLTSEDSAVYFCARYYVSSPFAYWGQGTLVTVSA
VL: B1 VL with V30I, Y31H, Y41F, Y75D, I90V
notes: as for B1
EC50 [1]: 0.46 nM
EC50 [8]: ~100 nM
EC50 [2]: 1.26 nM
Kd [3]: 135 nM
koff [3]: 0.000858 s⁻¹
kon [3]: 6360 M⁻¹ s⁻¹
binding result [4]: binds
binding result [5]: binds
binding result [6]: binds
binding result [7]: binds

B3: HJ1518 (antibody, V domains shown)
VH: B1 VH with D10E, I30S, A37V, T58S, S77R, F82L, F94Y, A118T
VL: B1 VL with T7S, N28S, Y31H, S32R, Y75D, I90V, K112R
notes: as for B1
EC50 [1]: 0.06 nM
EC50 [2]: 0.258 nM
Kd [3]: 206 nM
koff [3]: 0.00946 s⁻¹
kon [3]: 45900 M⁻¹ s⁻¹
binding result [4]: binds
binding result [5]: binds
binding result [6]: binds
binding result [7]: binds

B4: HJ1531 (antibody, V domains shown)
VH: EVQFVESGGGLVQPKGSLKLSCAASGFSFNIYAMNWVRQAPGKGLEWVARIRSKSNDYATFYADSVKDRFTISRDDSESMLYLQMNNLKIEDTAMYYCVSPYDGALAYWGQGTSVTVSS
VL: DIQMNQSPSSLFASLGDTITITCHASQNINVWLSWYQQKPGNIPKLLIYKASNLHTGVSSRFSGSGSGTDFTLTINNLQPEDIATYYCQQGQSYPLTFGAGTKLELKR
notes: as for B1
EC50 [1]: 0.04 nM
EC50 [8]: 0.05 nM
EC50 [2]: 0.05 nM

B5: HJ1536 (antibody, V domains shown)
VH: EVQFVESGGGLVQPKGSLKLSCEVSGFSFNTYAMNWVRQAPGKGLEWVARIRNKTNNYATFYADSVKDRFTISRDDSKNTLYLQMNNLKAEDTAMYFCASPYDGSFAYWGQGTLVTVSA
VL: B4 VL with F12S, V31I, S59P, D70G, N76S, N77S, Q92H, A100G, L106I
notes: as for B1
EC50 [1]: 0.05 nM
EC50 [8]: 0.09 nM
EC50 [2]: 0.1 nM

B6: HJ1514 (antibody, V domains shown)
VH: EVNLEESGGGLVQPGGSMKLSCAASGFTFSDAWMDWVRQSPEKGLEWVAEIRNKADNHATYYAESVKGRFTISRNDSKSSVYLQMNSLRTEDTGIYYCVLWDYWGQGTTLTVSS
VL: DIVMSQSPSSLAVSAGEKVTMTCKSSQSLLNSRTRKNFLTWYRQKPGQSPKPLIYWASSRESGVPDRFAGSGSGTDFTLTISSVQAEDLAVYYCKQSYNLPWTFGGGTKLEIKR
notes: as for B1
EC50 [1]: 0.04 nM
EC50 [8]: ~100 nM
EC50 [2]: 0.23 nM
Kd [3]: < 0.781 nM
koff [3]: < 1e-05 s⁻¹
kon [3]: 12800 M⁻¹ s⁻¹
binding result [4]: binds
binding result [5]: binds
binding result [6]: binds
binding result [7]: binds

B7: HJ158 (antibody, V domains shown)
VH: EVQLMESGGDLVKPGGSLELSCTVSGFTFNNYAMSWIRQTPEKRLEWVATISDGGTNTYFPDNVKGRFTISRDNAKSNLYLQMSHLQSEDTAMYYCAREGRGTWFAYWGQGTLVTVSA
VL: DVVMTQTPLSLPVSLGDQASISCRSSQSLVHINGNTYLHWSLQKPGQSPKLLIYKVSNRFSGVPDRFSGSGSGTDFTLKISRVEAEDLGIYFCSQNTHLPLTFGAGTKLELKR
notes: as for B1
EC50 [1]: 0.06 nM
EC50 [8]: 0.07 nM
EC50 [2]: 0.09 nM
